Experimental data from patent US6667388B2, “Peptide inhibitor of MMP activity and angiogenesis” (Beth Israel Deaconess Medical Center, priority 2001, dated 2003).

Assays:
[1] = biological target: T1, proMMP-9 (Homo sapiens, UniProt P14780); experiment: MMP enzymatic assay with [3H]-labeled gelatin substrate, basal activity of proMMP-9; format: biochemical; settings: peptide tested as MBP fusion protein; proMMP9 preincubated at 37° C. for 2 hours with 10 or 100 ng, then [3H]-labeled substrate for 1 hour; FIG. 2
T1 construct: purchased CALBIOCHEM
Procedure: FIG. 2: is a bar graph depicting the inhibitory effect of the peptide of the invention on MMP-9 activity in an in vitro assay. ProMMP9 was preincubated at 37° C. for 2 hours with 10 or 100 ng of recombinant MBP-peptide fusion protein (MBP-29) followed by addition of [^3H]-labeled substrate for 1 hour.
(§1) For expression of the peptide as a fusion protein for subsequent use in MMP-9 inhibition assays, the cDNA encoding the peptide in SEQ ID NO:2 was cloned into the prokaryotic expression vector pMAL.c2× (NEN). The peptide was expressed as a fusion with the maltose binding protein (MBP) in the bacterial strain, BL21-codon plus (STRATAGENE). The bacteria were transformed using any standard method known in the art and grown at 37° C., as recommended by the supplier. The bacterial culture was supplemented with IPTG (isopropyl B-D-thiogalacto pyranoside) to a final concentration of 0.3 mM and grown further. The fusion protein with MBP was subsequently extracted from the bacterial cells using purified amylose resin. ProMMP (CALBIOCHEM) was used for assessing functionality of the bacterially expressed MBP-fusion peptide.
(§2) The enzymatic assays were performed using [3H]-labeled gelatin substrate. […] The radioactivity in the TCA soluble fraction was determined by a β-scintillation counter which gives a measure of the enzymatic activity of MMP-9.

[2] = biological target: T2, proMMP-9 activated by MMP3 (Homo sapiens, UniProt P14780); experiment: MMP enzymatic assay with [3H]-labeled gelatin substrate, proMMP-9 activated by MMP3; format: biochemical; settings: peptide tested as MBP fusion protein; proMMP-9 activated with MBP-MMP3, incubated for 2 hours; FIG. 3
T2 construct: purchased CALBIOCHEM
Procedure: FIG. 3: is a bar graph depicting the inhibitory effect of the peptide of the invention on activated MMP-9 in an in vitro assay. ProMMP-9 activated with MBP-MMP3 was incubated for 2 hours with control protein or recombinant MBP-peptide fusion protein (MBP-29).
as §1, §2

[3] = biological target: T3, mouse TSP2-TSR (Mus musculus, UniProt Q03350); experiment: Yeast two-hybrid screen with TSP2-TSR as bait; format: binding; settings: transactivation of reporter genes HIS3 and lacZ
T3 construct: The TSP-1 and TSP-2 TSR regions corresponded to nucleotides 1342-1861 and 1356-1876 of TSP-1 and TSP-2 respectively; expressed in transfected cells; host or cells: S. cerevisiae strain Y190 (bait vector pAS2-2)
Procedure: Generally, the nomenclature and the laboratory procedures in recombinant DNA technology described here are well known to those skilled in the art and are commonly employed in the art. The peptide of SEQ ID NO:1 was isolated by the yeast two-hybrid system using the MATCHMAKER two-hybrid system from CLONTECH.
The S. cerevisiae strain Y190 (CLONTECH, CA) was used for cDNA library screening and for direct testing of protein—protein interactions. The cells were grown at 30° C. either in rich YPD media or minimal media with the appropriate amino-acid supplements. The minimal media were SD-Trp, in which tryptophan was omitted; SD-Leu, in which leucine was omitted; SD-Trp, Leu, in which both tryptophan and leucine were omitted, and SD-Trp, leu, His, in which tryptophan, leucne and histidine were lacking.
The constructs for use in the yeast two-hybrid system were based on the GAL4 two-hybrid system 2, which includes the cloning vectors pAS2-1 and pACT2 (CLONTECH, CA). […] A bait vector with a second reading frame, designated pAS2-2, was constructed by linearizing the pAS2-1 with NcoI and filling-in using T4 DNA polymerase. […]
During the screen, the interaction between the bait (TSP1-TSR or TSP2-TSR) and the prey (NIH3T3 translational library) were assessed by their ability to transactivate the reporter genes HIS3 and lacZ. […]

T1 sequence (P14780 20-707 limits assumed): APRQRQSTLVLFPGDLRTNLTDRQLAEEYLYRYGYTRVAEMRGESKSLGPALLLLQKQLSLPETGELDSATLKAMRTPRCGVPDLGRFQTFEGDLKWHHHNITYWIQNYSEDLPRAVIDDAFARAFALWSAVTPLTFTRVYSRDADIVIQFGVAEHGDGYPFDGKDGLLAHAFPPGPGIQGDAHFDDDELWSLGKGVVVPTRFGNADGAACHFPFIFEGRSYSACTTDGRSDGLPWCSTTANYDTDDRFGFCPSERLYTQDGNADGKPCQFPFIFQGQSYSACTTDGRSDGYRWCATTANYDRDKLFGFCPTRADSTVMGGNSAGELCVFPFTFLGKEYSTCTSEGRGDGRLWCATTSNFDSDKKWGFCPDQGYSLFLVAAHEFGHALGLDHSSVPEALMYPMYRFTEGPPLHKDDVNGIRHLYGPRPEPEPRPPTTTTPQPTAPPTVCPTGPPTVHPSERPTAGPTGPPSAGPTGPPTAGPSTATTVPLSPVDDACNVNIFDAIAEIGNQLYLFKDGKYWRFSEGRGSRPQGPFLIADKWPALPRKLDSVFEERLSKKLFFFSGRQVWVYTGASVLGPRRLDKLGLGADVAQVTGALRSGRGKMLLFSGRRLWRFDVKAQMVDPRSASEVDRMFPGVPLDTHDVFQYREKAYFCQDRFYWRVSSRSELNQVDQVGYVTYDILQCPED
T2 sequence (P14780 107-707 limits assumed): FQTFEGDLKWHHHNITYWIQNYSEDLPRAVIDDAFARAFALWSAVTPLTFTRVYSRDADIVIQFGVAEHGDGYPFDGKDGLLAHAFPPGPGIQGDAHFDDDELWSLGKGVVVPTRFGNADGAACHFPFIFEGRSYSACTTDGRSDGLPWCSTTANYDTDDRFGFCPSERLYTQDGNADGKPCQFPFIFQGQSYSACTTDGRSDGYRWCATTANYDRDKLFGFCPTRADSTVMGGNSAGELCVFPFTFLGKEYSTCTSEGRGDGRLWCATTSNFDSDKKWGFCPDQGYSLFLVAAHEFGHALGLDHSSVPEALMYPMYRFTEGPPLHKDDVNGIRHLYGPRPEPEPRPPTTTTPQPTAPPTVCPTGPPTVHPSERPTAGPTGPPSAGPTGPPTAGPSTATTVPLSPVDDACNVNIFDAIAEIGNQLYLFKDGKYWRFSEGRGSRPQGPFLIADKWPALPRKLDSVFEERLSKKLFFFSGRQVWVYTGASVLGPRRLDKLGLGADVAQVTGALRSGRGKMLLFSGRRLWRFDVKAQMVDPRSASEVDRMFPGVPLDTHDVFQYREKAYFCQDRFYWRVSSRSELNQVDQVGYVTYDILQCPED
T3 sequence (Q03350 381-552): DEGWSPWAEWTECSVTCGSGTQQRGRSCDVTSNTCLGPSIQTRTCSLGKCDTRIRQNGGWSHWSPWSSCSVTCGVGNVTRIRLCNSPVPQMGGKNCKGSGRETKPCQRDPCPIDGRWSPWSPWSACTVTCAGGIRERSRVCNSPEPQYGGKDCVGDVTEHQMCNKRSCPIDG

APWNCCPVSCCGNCCFFRAL QSCPQG (APWNCCPVSCCGNCCFFRALQSCPQG; OTHER INFORMATION: Peptide Inhibitor of MMP- 9 Activity and Angiogenesis) [peptide of SEQ ID NO:1]
inhibition of MMP-9 activity (basal activity of proMMP-9) [1]: inhibited MMP-9 activity in a dose-dependent manner | inhibition of MMP-3 dependent activation of MMP (activated MMP-9) [2]: inhibited in a dose-dependent manner | interaction with TSP-2 [3]: isolated as an interactor of TSP-2
